Measurements published in the supplement of paper PMC10126150.
± gives the standard deviation of the averaged measurements.

What follows are sequences tested on ATP (assay: switch fluorescence ratio, 500 uM ATP over buffer (Cy3 cluster intensity, sum of 5 cycles each) (fold (ratio)); higher = stronger signal-on switching upon ATP binding; sequences stand for … in TCGTCGGCAGCGTCAGATGTGTATAAGAGACAGTTTTTTTTTTTTTTTTTTTTTTTTT…TC). Conditions: aptamer strand: ATP DNA aptamer (quencher-CACCTGGGGGAGTATTGCGGAGGAAGG + anchor), 100 nM annealed; ATP concentration: 500 uM.
How it was run: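 Clusters with intensities outside 100-1000 RFU were excluded. The remaining Cy3-labelled switching-strand clusters on a modified Illumina MiSeq flow-cell had been annealed to 100 nM quencher-labelled ATP aptamer and imaged in selection buffer, then after 15 min with 500 uM ATP at 22 °C, for five cycles separated by NaOH stripping and re-annealing. The fluorescence ratio, averaged per switch-domain sequence, is each cluster's summed target-cycle Cy3 intensity over its summed buffer-cycle Cy3 intensity.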
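Further: ATP exposure 15 min at 22 °C before imaging.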

| Sequence | switch fluorescence ratio |
| --- | --- |
| CAACAGAGTG | 1.07 ± 0.085 |
| CAACATCACG | 1.52 ± 0.057 |
| CAACATGATG | 0.995 ± 0.013 |
| CAACATTTCA | 1.01 ± 0.022 |
| CAACCAGTGT | 1.31 ± 0.026 |
| CAACCGGCCA | 1.11 ± 0.027 |
| CAACGTGTGG | 1.04 ± 0.072 |
| CAACTCCGGA | 1.204 ± 0.0066 |
| CAACTGCATA | 1.98 ± 0.063 |
| CAACTGGTAT | 1.17 ± 0.26 |
| CAAGAAGAGT | 1.01 ± 0.04 |
| CAAGAAGATG | 0.9523 ± 0.0012 |
| CAAGACAACT | 1.03 ± 0.033 |
| CAAGACAGCT | 1.02 ± 0.031 |
| CAAGATCATT | 1.008 ± 0.0036 |
| CAAGATGGTC | 0.987 ± 0.051 |
| CAAGATTGGA | 0.961 ± 0.025 |
| CAAGATTGTG | 1.01 ± 0.017 |
| CAAGCAAGAT | 2.58 ± 0.24 |
| CAAGCATAGG | 1.07 ± 0.072 |
| CAAGCGTCAC | 1.12 ± 0.019 |
| CAAGCTCTGT | 1.01 ± 0.016 |
| CAAGCTTTCG | 1.06 ± 0.048 |
| CAAGGAAACG | 1.002 ± 0.0034 |
| CAAGGACTGT | 1.05 ± 0.016 |

| Sequence | switch fluorescence ratio |
| --- | --- |
| CAAGGAGATG | 1.01 ± 0.046 |
| CAAGGAGGGG | 1.017 ± 0.0074 |
| CAAGGATTAA | 1.006 ± 0.0012 |
| CAAGGCTTGA | 0.974 ± 0.022 |
| CAAGGGCGGC | 0.973 ± 0.012 |
| CAAGGGGATT | 1 ± 0.027 |
| CAAGGTAAGG | 0.984 ± 0.011 |
| CAAGGTAGGG | 0.968 ± 0.019 |
| CAAGGTGGTC | 0.995 ± 0.029 |
| CAAGGTTATG | 0.974 ± 0.013 |
| CAAGTAGCGA | 1.088 ± 0.0072 |
| CAAGTAGGGA | 1.01 ± 0.057 |
| CAAGTAGGGG | 0.9765 ± 0.0015 |
| CAAGTTAATT | 0.987 ± 0.011 |
| CAAGTTGTAC | 1.1 ± 0.019 |
| CAAGTTTGTA | 0.997 ± 0.021 |
| CAATAAAGGT | 1.08 ± 0.18 |
| CAATAAGATT | 1.016 ± 0.0077 |
| CAATAATATG | 0.993 ± 0.029 |
| CAATAATTTA | 1.004 ± 0.0086 |
| CAATACAGTC | 1.03 ± 0.011 |
| CAATACTATA | 1.11 ± 0.067 |
| CAATACTTAT | 1.01 ± 0.019 |
| CAATAGATGT | 1.042 ± 0.0021 |
| CAATAGGGCA | 0.943 ± 0.024 |

| Sequence | switch fluorescence ratio |
| --- | --- |
| CAATAGTCAA | 1.05 ± 0.013 |
| CAATATGAAT | 1.02 ± 0.0057 |
| CAATATGATA | 1.003 ± 0.0011 |
| CAATATTGCC | 1.02 ± 0.051 |
| CAATCAATCG | 1.05 ± 0.017 |
| CAATCAGGAC | 1.06 ± 0.041 |
| CAATCTTGGG | 0.97144 ± 0.00089 |
| CAATGATCAG | 1.006 ± 0.0081 |
| CAATGATGAC | 1.01 ± 0.018 |
| CAATGGATGA | 1 ± 0.015 |
| CAATGGATTT | 1.026 ± 0.007 |
| CAATGGCCGG | 1.02 ± 0.028 |
| CAATGGCTTT | 0.9983 ± 0.0059 |
| CAATGGGGAA | 1 ± 0.014 |
| CAATGTGCAG | 0.98804 ± 5.9e-06 |
| CAATTATTAG | 0.988 ± 0.017 |
| CAATTCGAGC | 0.988 ± 0.015 |
| CAATTCGCGA | 1.2 ± 0.034 |
| CAATTCGTAA | 1.11 ± 0.018 |
| CAATTCGTCT | 0.994 ± 0.075 |
| CAATTGCCCA | 1.014 ± 0.0079 |
| CAATTGTACT | 0.994 ± 0.013 |
| CAATTTATAT | 0.994 ± 0.019 |
| CAATTTGTGT | 0.983 ± 0.012 |
| CAATTTTCTG | 0.985 ± 0.057 |

| Sequence | switch fluorescence ratio |
| --- | --- |
| CAATTTTGTG | 0.9807 ± 0.007 |
| CACAAGGTAT | 1.03 ± 0.033 |
| CACAATTGGG | 1.01 ± 0.035 |
| CACAGTTACC | 1.242 ± 0.0095 |
| CACATACATT | 1.24 ± 0.067 |
| CACATAGTTT | 1.03 ± 0.023 |
| CACATTGACC | 1.1119 ± 7.1e-05 |
| CACATTGTAG | 1.007 ± 0.0086 |
| CACATTTTCA | 1.01 ± 0.027 |
| CACCAAGGTT | 1.15 ± 0.088 |
| CACCAGGAAT | 1.08 ± 0.021 |
| CACCAGTGCT | 1.621 ± 0.0094 |
| CACCCATTGC | 1.584 ± 0.0038 |
| CACCGGGCCT | 1.02 ± 0.016 |
| CACCGGGGTT | 1.01 ± 0.018 |
| CACCTAGTTT | 1.01 ± 0.052 |
| CACGAATGCT | 1.04 ± 0.019 |
| CACGAGAAGT | 1.044 ± 0.0047 |
| CACGCGGTGG | 1.02 ± 0.13 |
| CACGCTAGTA | 1.04 ± 0.021 |
| CACGCTTCCG | 1.07 ± 0.047 |
| CACGGATGTT | 1.02 ± 0.093 |
| CACGGTCTAA | 1.03 ± 0.043 |
| CACGTAAACG | 1.0351 ± 9.7e-05 |
| CACGTTACTG | 1.66 ± 0.12 |
